# Data taken from US20210388087A1 (Chugai, published 2021).
# Molecular target: T1, Human CD137 ECD (human)
# T1 construct: also called 4-1BB
# Assay: SPR, vs parent H183/L072
# T1 sequence (chain, as listed by the source limits assumed): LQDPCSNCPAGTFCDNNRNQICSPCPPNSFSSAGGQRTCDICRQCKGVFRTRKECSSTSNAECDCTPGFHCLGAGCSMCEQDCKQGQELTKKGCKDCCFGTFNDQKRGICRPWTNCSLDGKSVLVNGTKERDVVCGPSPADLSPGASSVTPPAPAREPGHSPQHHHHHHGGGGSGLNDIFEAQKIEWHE
row,fold change of affinity,Binder
1,1.1 fold,"dBBDu183H S99R / dBBDu072L (antibody, name in Kabat numbering, V domains shown, as m1, one VH change) VH: QVQLVESGGGLVQPGRSLRLSCAASGFTFSNAWMHWVRQAPGKGLEWVAQIKDKGNAYAAYYAPSVKGRFTISRDDSKNSIYLQMNSLKTEDTAVYYCHYVHYARASTVLPAFGVDAWGQGTTVTVSS VL: DIVMTQSPLSLPVTPGEPASISCQASQELVHMNRNTYLHWYQQKPGQAPRLLIYKVSNRFPGVPDRFSGSGSGTDFTLKISRVEAEDVGVYYCAQGTSVPFTFGQGTKLEIK"
2,1 fold,"dBBDu183H V63H / dBBDu072L (antibody, name in Kabat numbering, V domains shown, as m1, one VH change) VH: QVQLVESGGGLVQPGRSLRLSCAASGFTFSNAWMHWVRQAPGKGLEWVAQIKDKGNAYAAYYAPSHKGRFTISRDDSKNSIYLQMNSLKTEDTAVYYCHYVHYASASTVLPAFGVDAWGQGTTVTVSS VL: DIVMTQSPLSLPVTPGEPASISCQASQELVHMNRNTYLHWYQQKPGQAPRLLIYKVSNRFPGVPDRFSGSGSGTDFTLKISRVEAEDVGVYYCAQGTSVPFTFGQGTKLEIK"
3,1.3 fold,"dBBDu183H V63Q / dBBDu072L (antibody, name in Kabat numbering, V domains shown, as m1, one VH change) VH: QVQLVESGGGLVQPGRSLRLSCAASGFTFSNAWMHWVRQAPGKGLEWVAQIKDKGNAYAAYYAPSQKGRFTISRDDSKNSIYLQMNSLKTEDTAVYYCHYVHYASASTVLPAFGVDAWGQGTTVTVSS VL: DIVMTQSPLSLPVTPGEPASISCQASQELVHMNRNTYLHWYQQKPGQAPRLLIYKVSNRFPGVPDRFSGSGSGTDFTLKISRVEAEDVGVYYCAQGTSVPFTFGQGTKLEIK"
4,0.9 fold,"dBBDu183H V63N / dBBDu072L (antibody, name in Kabat numbering, V domains shown, as m1, one VH change) VH: QVQLVESGGGLVQPGRSLRLSCAASGFTFSNAWMHWVRQAPGKGLEWVAQIKDKGNAYAAYYAPSNKGRFTISRDDSKNSIYLQMNSLKTEDTAVYYCHYVHYASASTVLPAFGVDAWGQGTTVTVSS VL: DIVMTQSPLSLPVTPGEPASISCQASQELVHMNRNTYLHWYQQKPGQAPRLLIYKVSNRFPGVPDRFSGSGSGTDFTLKISRVEAEDVGVYYCAQGTSVPFTFGQGTKLEIK"
5,0.9 fold,"dBBDu183H V63F / dBBDu072L (antibody, name in Kabat numbering, V domains shown, as m1, one VH change) VH: QVQLVESGGGLVQPGRSLRLSCAASGFTFSNAWMHWVRQAPGKGLEWVAQIKDKGNAYAAYYAPSFKGRFTISRDDSKNSIYLQMNSLKTEDTAVYYCHYVHYASASTVLPAFGVDAWGQGTTVTVSS VL: DIVMTQSPLSLPVTPGEPASISCQASQELVHMNRNTYLHWYQQKPGQAPRLLIYKVSNRFPGVPDRFSGSGSGTDFTLKISRVEAEDVGVYYCAQGTSVPFTFGQGTKLEIK"
6,0.5 fold,"dBBDu183H V100cE / dBBDu072L (antibody, name in Kabat numbering, V domains shown, as m1, one VH change) VH: QVQLVESGGGLVQPGRSLRLSCAASGFTFSNAWMHWVRQAPGKGLEWVAQIKDKGNAYAAYYAPSVKGRFTISRDDSKNSIYLQMNSLKTEDTAVYYCHYVHYASASTELPAFGVDAWGQGTTVTVSS VL: DIVMTQSPLSLPVTPGEPASISCQASQELVHMNRNTYLHWYQQKPGQAPRLLIYKVSNRFPGVPDRFSGSGSGTDFTLKISRVEAEDVGVYYCAQGTSVPFTFGQGTKLEIK"
7,1.3 fold,"dBBDu183H V63G / dBBDu072L (antibody, name in Kabat numbering, V domains shown, as m1, one VH change) VH: QVQLVESGGGLVQPGRSLRLSCAASGFTFSNAWMHWVRQAPGKGLEWVAQIKDKGNAYAAYYAPSGKGRFTISRDDSKNSIYLQMNSLKTEDTAVYYCHYVHYASASTVLPAFGVDAWGQGTTVTVSS VL: DIVMTQSPLSLPVTPGEPASISCQASQELVHMNRNTYLHWYQQKPGQAPRLLIYKVSNRFPGVPDRFSGSGSGTDFTLKISRVEAEDVGVYYCAQGTSVPFTFGQGTKLEIK"
8,1 fold,"dBBDu183H V63R / dBBDu072L (antibody, name in Kabat numbering, V domains shown, as m1, one VH change) VH: QVQLVESGGGLVQPGRSLRLSCAASGFTFSNAWMHWVRQAPGKGLEWVAQIKDKGNAYAAYYAPSRKGRFTISRDDSKNSIYLQMNSLKTEDTAVYYCHYVHYASASTVLPAFGVDAWGQGTTVTVSS VL: DIVMTQSPLSLPVTPGEPASISCQASQELVHMNRNTYLHWYQQKPGQAPRLLIYKVSNRFPGVPDRFSGSGSGTDFTLKISRVEAEDVGVYYCAQGTSVPFTFGQGTKLEIK"
9,1 fold,"dBBDu183H V63W / dBBDu072L (antibody, name in Kabat numbering, V domains shown, as m1, one VH change) VH: QVQLVESGGGLVQPGRSLRLSCAASGFTFSNAWMHWVRQAPGKGLEWVAQIKDKGNAYAAYYAPSWKGRFTISRDDSKNSIYLQMNSLKTEDTAVYYCHYVHYASASTVLPAFGVDAWGQGTTVTVSS VL: DIVMTQSPLSLPVTPGEPASISCQASQELVHMNRNTYLHWYQQKPGQAPRLLIYKVSNRFPGVPDRFSGSGSGTDFTLKISRVEAEDVGVYYCAQGTSVPFTFGQGTKLEIK"
10,1 fold,"dBBDu183H T100bS / dBBDu072L (antibody, name in Kabat numbering, V domains shown, as m1, one VH change) VH: QVQLVESGGGLVQPGRSLRLSCAASGFTFSNAWMHWVRQAPGKGLEWVAQIKDKGNAYAAYYAPSVKGRFTISRDDSKNSIYLQMNSLKTEDTAVYYCHYVHYASASSVLPAFGVDAWGQGTTVTVSS VL: DIVMTQSPLSLPVTPGEPASISCQASQELVHMNRNTYLHWYQQKPGQAPRLLIYKVSNRFPGVPDRFSGSGSGTDFTLKISRVEAEDVGVYYCAQGTSVPFTFGQGTKLEIK"
11,0.5 fold,"dBBDu183H V100cH / dBBDu072L (antibody, name in Kabat numbering, V domains shown, as m1, one VH change) VH: QVQLVESGGGLVQPGRSLRLSCAASGFTFSNAWMHWVRQAPGKGLEWVAQIKDKGNAYAAYYAPSVKGRFTISRDDSKNSIYLQMNSLKTEDTAVYYCHYVHYASASTHLPAFGVDAWGQGTTVTVSS VL: DIVMTQSPLSLPVTPGEPASISCQASQELVHMNRNTYLHWYQQKPGQAPRLLIYKVSNRFPGVPDRFSGSGSGTDFTLKISRVEAEDVGVYYCAQGTSVPFTFGQGTKLEIK"
12,0.6 fold,"dBBDu183H S99T / dBBDu072L (antibody, name in Kabat numbering, V domains shown, as m1, one VH change) VH: QVQLVESGGGLVQPGRSLRLSCAASGFTFSNAWMHWVRQAPGKGLEWVAQIKDKGNAYAAYYAPSVKGRFTISRDDSKNSIYLQMNSLKTEDTAVYYCHYVHYATASTVLPAFGVDAWGQGTTVTVSS VL: DIVMTQSPLSLPVTPGEPASISCQASQELVHMNRNTYLHWYQQKPGQAPRLLIYKVSNRFPGVPDRFSGSGSGTDFTLKISRVEAEDVGVYYCAQGTSVPFTFGQGTKLEIK"
13,0.3 fold,"dBBDu183H T100bQ / dBBDu072L (antibody, name in Kabat numbering, V domains shown, as m1, one VH change) VH: QVQLVESGGGLVQPGRSLRLSCAASGFTFSNAWMHWVRQAPGKGLEWVAQIKDKGNAYAAYYAPSVKGRFTISRDDSKNSIYLQMNSLKTEDTAVYYCHYVHYASASQVLPAFGVDAWGQGTTVTVSS VL: DIVMTQSPLSLPVTPGEPASISCQASQELVHMNRNTYLHWYQQKPGQAPRLLIYKVSNRFPGVPDRFSGSGSGTDFTLKISRVEAEDVGVYYCAQGTSVPFTFGQGTKLEIK"
14,0.1 fold,"dBBDu183H T100bN / dBBDu072L (antibody, name in Kabat numbering, V domains shown, as m1, one VH change) VH: QVQLVESGGGLVQPGRSLRLSCAASGFTFSNAWMHWVRQAPGKGLEWVAQIKDKGNAYAAYYAPSVKGRFTISRDDSKNSIYLQMNSLKTEDTAVYYCHYVHYASASNVLPAFGVDAWGQGTTVTVSS VL: DIVMTQSPLSLPVTPGEPASISCQASQELVHMNRNTYLHWYQQKPGQAPRLLIYKVSNRFPGVPDRFSGSGSGTDFTLKISRVEAEDVGVYYCAQGTSVPFTFGQGTKLEIK"
15,0.5 fold,"dBBDu183H S99Y / dBBDu072L (antibody, name in Kabat numbering, V domains shown, as m1, one VH change) VH: QVQLVESGGGLVQPGRSLRLSCAASGFTFSNAWMHWVRQAPGKGLEWVAQIKDKGNAYAAYYAPSVKGRFTISRDDSKNSIYLQMNSLKTEDTAVYYCHYVHYAYASTVLPAFGVDAWGQGTTVTVSS VL: DIVMTQSPLSLPVTPGEPASISCQASQELVHMNRNTYLHWYQQKPGQAPRLLIYKVSNRFPGVPDRFSGSGSGTDFTLKISRVEAEDVGVYYCAQGTSVPFTFGQGTKLEIK"
16,0.9 fold,"dBBDu183H V63S / dBBDu072L (antibody, name in Kabat numbering, V domains shown, as m1, one VH change) VH: QVQLVESGGGLVQPGRSLRLSCAASGFTFSNAWMHWVRQAPGKGLEWVAQIKDKGNAYAAYYAPSSKGRFTISRDDSKNSIYLQMNSLKTEDTAVYYCHYVHYASASTVLPAFGVDAWGQGTTVTVSS VL: DIVMTQSPLSLPVTPGEPASISCQASQELVHMNRNTYLHWYQQKPGQAPRLLIYKVSNRFPGVPDRFSGSGSGTDFTLKISRVEAEDVGVYYCAQGTSVPFTFGQGTKLEIK"
17,0.8 fold,"dBBDu183H V63K / dBBDu072L (antibody, name in Kabat numbering, V domains shown, as m1, one VH change) VH: QVQLVESGGGLVQPGRSLRLSCAASGFTFSNAWMHWVRQAPGKGLEWVAQIKDKGNAYAAYYAPSKKGRFTISRDDSKNSIYLQMNSLKTEDTAVYYCHYVHYASASTVLPAFGVDAWGQGTTVTVSS VL: DIVMTQSPLSLPVTPGEPASISCQASQELVHMNRNTYLHWYQQKPGQAPRLLIYKVSNRFPGVPDRFSGSGSGTDFTLKISRVEAEDVGVYYCAQGTSVPFTFGQGTKLEIK"
18,0.9 fold,"dBBDu183H V63E / dBBDu072L (antibody, name in Kabat numbering, V domains shown, as m1, one VH change) VH: QVQLVESGGGLVQPGRSLRLSCAASGFTFSNAWMHWVRQAPGKGLEWVAQIKDKGNAYAAYYAPSEKGRFTISRDDSKNSIYLQMNSLKTEDTAVYYCHYVHYASASTVLPAFGVDAWGQGTTVTVSS VL: DIVMTQSPLSLPVTPGEPASISCQASQELVHMNRNTYLHWYQQKPGQAPRLLIYKVSNRFPGVPDRFSGSGSGTDFTLKISRVEAEDVGVYYCAQGTSVPFTFGQGTKLEIK"
19,0.9 fold,"dBBDu183H V63T / dBBDu072L (antibody, name in Kabat numbering, V domains shown, as m1, one VH change) VH: QVQLVESGGGLVQPGRSLRLSCAASGFTFSNAWMHWVRQAPGKGLEWVAQIKDKGNAYAAYYAPSTKGRFTISRDDSKNSIYLQMNSLKTEDTAVYYCHYVHYASASTVLPAFGVDAWGQGTTVTVSS VL: DIVMTQSPLSLPVTPGEPASISCQASQELVHMNRNTYLHWYQQKPGQAPRLLIYKVSNRFPGVPDRFSGSGSGTDFTLKISRVEAEDVGVYYCAQGTSVPFTFGQGTKLEIK"
20,0.5 fold,"dBBDu183H V100cK / dBBDu072L (antibody, name in Kabat numbering, V domains shown, as m1, one VH change) VH: QVQLVESGGGLVQPGRSLRLSCAASGFTFSNAWMHWVRQAPGKGLEWVAQIKDKGNAYAAYYAPSVKGRFTISRDDSKNSIYLQMNSLKTEDTAVYYCHYVHYASASTKLPAFGVDAWGQGTTVTVSS VL: DIVMTQSPLSLPVTPGEPASISCQASQELVHMNRNTYLHWYQQKPGQAPRLLIYKVSNRFPGVPDRFSGSGSGTDFTLKISRVEAEDVGVYYCAQGTSVPFTFGQGTKLEIK"
21,0.9 fold,"dBBDu183H V63D / dBBDu072L (antibody, name in Kabat numbering, V domains shown, as m1, one VH change) VH: QVQLVESGGGLVQPGRSLRLSCAASGFTFSNAWMHWVRQAPGKGLEWVAQIKDKGNAYAAYYAPSDKGRFTISRDDSKNSIYLQMNSLKTEDTAVYYCHYVHYASASTVLPAFGVDAWGQGTTVTVSS VL: DIVMTQSPLSLPVTPGEPASISCQASQELVHMNRNTYLHWYQQKPGQAPRLLIYKVSNRFPGVPDRFSGSGSGTDFTLKISRVEAEDVGVYYCAQGTSVPFTFGQGTKLEIK"
